Assay results taken from PMC8191759.

Tests used:
Experiment in all cases: cross-linking
[1] = target: NSP8 F92A (SARS-CoV-2)
[2] = target: NSP8 M90A (SARS-CoV-2)
[3] = target: NSP8 M94A (SARS-CoV-2)

**Q.** NSP8 F92A (natural protein) was tested. Which stoichiometry N [1] did it give?
**A.** 2

**Q.** How did the stoichiometry N [2] turn out when NSP8 M90A (natural protein) was run?
**A.** 2

**Q.** With NSP8 M94A (natural protein) as the substance, how does the stoichiometry N [3] read?
**A.** 2
